Laboratory results taken from patent US20150344535A1, “NEUROTROPHIN-TYROSINE KINASE RECEPTOR SIGNALING” (THE UNIVERSITY OF QUEENSLAND, priority 2012, published 2015).

What was measured:
HEK293 cells = assay: NGF-FITC binding by flow cytometry, non-transfected HEK293 cells
Procedure: (§1) Background fluorescence of HEK293 cells was non-transfected cells (±c29 or scrambled peptide treatment) treated with 26 nM NGF-FITC. For PC12 cells, the control population was cells that had not been treated with NGF-FITC. Analysis of real-time NGF-FITC receptor binding experiments was performed on 550,000-600,000 cells at 4° C. in serum free NB medium and binding kinetics were calculated from raw data files compressed to 50,000 binding events using FlowJo and MatLab Software. Data was plotted with the use of GraphPad Prism.
Only NGF-FITC preparations that promoted equivalent neurite outgrowth of PC12 cells to that of unlabelled NGF were used in binding experiments. To investigate NGF binding, PC12 or transfected HEK293 cells were serum starved for 4 hours, harvested, washed with Dulbecco's Modified Eagle Medium (DMEM), and counted. When used, c29 or scrambled peptide were added to cultures for the third hour of the serum starvation procedure. […] For binding competition assays, following 1 hour in NGF-FITC, cells were washed with ice-cold PBS containing 0.1% normal bovine serum and incubated on ice with unlabeled NGF at concentrations ranging from 100 pM to 10 μM for 30 minutes, then washed twice in PBS before being analysed on a BD Flow Cytometer FACS Scan (Becton-Dickinson).

TrkA = assay: Biotinylated peptide pull down of TrkA; type: binding; conditions: lysate of transfected HEK293 cells, FIG. 4D
Procedure: For peptide pull down assays, the biotinylated c29 or LC1 control peptides were incubated with protein A-sepharose beads or Dynabeads MyOne Streptavidin T1 (Invitrogen) overnight at 4° C. Cell lysates were then added to the peptide-protein A-sepharose complex or Dynabeads MyOne Streptavidin T1 and incubated for 3 hours at 4° C. Peptide-receptor complexes were washed extensively with RIPA lysis buffer and eluted by boiling in Laemmli sample buffer. For p75^NTR construct immunoprecipitations, HEK293 cells were treated with NGF at 50 ng/ml for 10 minutes 48 hours after transfection with 1 μg DNA per well. Cells were immediately harvested in ice-cold phosphate buffered saline (PBS) and washed twice, then lysed in 1 ml of lysis buffer. Cell lysates were pre-cleared in 75 μl (1:2) protein-G sepharose: PBS by rotation end-over-end for 2 hours at 4′C. Lysates were then incubated with 3-5 μg antibody, either mouse-anti-YFP/GFP (Roche) or rabbit-anti-human p75^NTR intracellular domain antibody (Promega), and rotated end-over-end for 2 hours at 4° C.
Immunoprecipitation was performed by the addition of 75 μl (1:2) protein-G sepharose: PBS and incubation end-over-end for 16 hours at 4° C. The immunoprecipitate was washed 4 times with 1 ml of PBS then eluted in 60 μl 2×LDS sample buffer. For immunoblotting, samples were boiled for 5 minutes, separated by SDS-PAGE and transferred onto nitrocellulose membranes, then western blotted using standard protocols (see Example 1 for antibodies used).
The c29 peptide was labelled with biotin and attached to a sepharose bead column. Lysates from cells was passed over the column followed by several wash steps. The proteins that bound to the c29 peptide (proteins that are pulled down) were eluted from the column with SDS buffer and separated in size by SDS-PAGE electrophoresis. The gel was Western blotted and the membrane probed with antibodies to proteins of interest.

p75^FL = biological target: T1, p75^FL (Rattus norvegicus, UniProt P07174); assay: NGF-FITC binding by flow cytometry, p75^FL-transfected HEK293 cells
T1 construct: p75^FL—full-length p75^NTR; expressed in transfected cells; host or cells: HEK293
T1 sequence (P07174 30-425): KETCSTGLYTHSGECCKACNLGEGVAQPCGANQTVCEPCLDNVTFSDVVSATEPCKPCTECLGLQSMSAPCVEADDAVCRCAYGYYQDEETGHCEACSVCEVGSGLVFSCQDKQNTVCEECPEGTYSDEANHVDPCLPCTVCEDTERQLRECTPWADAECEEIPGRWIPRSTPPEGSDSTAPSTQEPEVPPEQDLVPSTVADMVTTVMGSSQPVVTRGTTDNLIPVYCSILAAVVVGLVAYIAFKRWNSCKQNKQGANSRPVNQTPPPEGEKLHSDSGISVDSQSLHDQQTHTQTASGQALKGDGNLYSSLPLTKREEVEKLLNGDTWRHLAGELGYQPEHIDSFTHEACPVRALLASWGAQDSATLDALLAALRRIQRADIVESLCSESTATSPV
Procedure: The NGF was conjugated to FITC by standard methods and detailed flow cytometry acquisition and analysis. For NGF-FITC conjugation 400 μg βNGF in 200 μl pH 8.5 NaHCO3 buffer was mixed with 5-10 μl of 10 mg/ml FITC in 100 μl DMSO for 10 hours at 4° C. on an orbital shaker set to 100 rpm. The excess FITC was removed by dialysis against 3 changes of 5 L of 10 mM Tris, 150 mM NaCl, 0.2% acetic acid, pH 8.2 for 24 hours at 4° C. Conjugate F/P characterization was determined by measuring absorbance at 280 nm and 495 nm according to manufacturer's instructions. Biological activity of the NGF-FITC conjugate was tested by performing PC12 cell neurite outgrowth assays unlabelled NGF, and comparing the levels of neuritogenesis. NGF-FITC conjugates were used within 4 weeks of synthesis.
For the flow cytometry NGF binding assays, fluorescence cell parameters of at least 20,000 events for PC12 cells and 100,000 events for HEK293 cells were acquired by flow cytometry list mode and measurements were performed on a single cell basis (with compensation for double event counting). Dead cells and debris were gated out of the analysis on the basis of forward scatter fluorescence, and mean, median and maximal fluorescence values of the gated cell populations were analysed using FACS Diva Software (Becton-Dickinson Biosciences) and FACS Express Software (Becton-Dickinson Biosciences).
as §1
Only NGF-FITC preparations that promoted equivalent neurite outgrowth of PC12 cells to that of unlabelled NGF were used in binding experiments. To investigate NGF binding, PC12 or transfected HEK293 cells were serum starved for 4 hours, harvested, washed with Dulbecco's Modified Eagle Medium (DMEM), and counted. When used, c29 or scrambled peptide were added to cultures for the third hour of the serum starvation procedure. 1×10^7 cells/ml suspended in 500 μl of serum-free DMEM were incubated with 26 nM NGF-FITC on ice for 60 minutes before analysis. For binding competition assays, following 1 hour in NGF-FITC, cells were washed with ice-cold PBS containing 0.1% normal bovine serum and incubated on ice with unlabeled NGF at concentrations ranging from 100 pM to 10 μM for 30 minutes, then washed twice in PBS before being analysed on a BD Flow Cytometer FACS Scan (Becton-Dickinson).
To determine association rates, cells were harvested as above following serum starvation and peptide treatment, and were resuspended in 3 ml of serum-free Neurobasal (NB) medium containing […] (Invitrogen) and […] nonessential amino acids, prior to analysis on the flow cytometer. Cells were analysed for 30 seconds prior to the addition of 26 nM NGF-FITC, and then for 30 minutes in real time with an analysis rate of 200-300 events/sec.

[1] = 26 nM NGF-FITC 60 minutes, c.f. p75^FL alone

Sequence: KRWNSCKQNKQGANSRPVNQTPPPEGEKL (c29- Fragment of p75ICD) [29 amino acid peptide of the p75NTR juxtamembrane Chopper domain; delivered to cells linked to PTD4 or disulfide-linked carrier]
- fluorescence of nontransfected cells incubated with peptide and NGF-FITC (HEK293 cells): only background levels of fluorescence
- pull down of TrkA (TrkA): able to pull down TrkA
- % of cell population with FITC above background (p75^FL; [1]): 100.5 ± 14.2%
- Maximal fluorescence per cell of the population (p75^FL; [1]): 98.7 ± 4.3%
- Mean fluorescence per FITC-positive cell (p75^FL; [1]): 105.2 ± 3.6%
- Median population fluorescence (p75^FL; [1]): 103.8 ± 11.2%
- half time of NGF-FITC binding (p75^FL; 26 nM NGF-FITC, cells treated with c29): 7.1 min
- fluorescence profile of the population (p75^FL; pre-treated with c29, NGF-FITC): did not change
